Experimental data reported in patent publication US20260116960A1 (SHANGHAI HONGCHENG BIOPHARMACEUTICAL, published 2026).

B1: HC010-F13 (trispecific antibody, human IgG4 S228P, kappa)
heavy 1: EVQLVESGGGLVQPGGSLRLSCAASGFTFSSYGMSWVRQAPGKGLEWVSTISGGGRDTYYPDSVKGRFTISRDNSKNTLYLQMNSLRAEDTAVYYCARQNGITWFADWGQGTLVTVSSASTKGPSVFPLAPCSRSTSESTAALGCLVKDYFPEPVTVSWNSGALTSGVHTFPAVLQSSGLYSLSSVVTVPSSSLGTKTYTCNVDHKPSNTKVDKRVESKYGPPCPPCPAPEFLGGPSVFLFPPKPKDTLMISRTPEVTCVVVDVSQEDPEVQFNWYVDGVEVHNAKTKPREEQFNSTYRVVSVLTVLHQDWLNGKEYKCKVSNKGLPSSIEKTISKAKGQPREPQVYTLPPCQEEMTKNQVSLWCLVKGFYPSDIAVEWESNGQPENNYKTTPPVLDSDGSFFLYSRLTVDKSRWQEGNVFSCSVMHEALHNHYTQKSLSLSLGAGGGGSGGGGSGGGGSGGGGSEVQLVESGGGLVQPGGSLRLSCAASGYTFTNYGMNWVRQAPGKCLEWVGWINTYTGEPTYAADFKRRFTFSLDTSKSTAYLQMNSLRAEDTAVYYCAKYPHYYGSSHWYFDVWGQGTLVTVSSGGGGSGGGGSGGGGSGGGGSDIQMTQSPSSLSASVGDRVTITCSASQDISNYLNWYQQKPGKAPKVLIYFTSSLHSGVPSRFSGSGSGTDFTLTISSLQPEDFATYYCQQYSTVPWTFGCGTKVEIK
heavy 2: EVQLLESGGGLVQPGGSLRLSCAASGSIFSINHMAWYRQAPGKQRELVAGVNSRGTTNYVDSVKGRFTISRDNSKNTLYLQMNSLRAEDTAVYYCRALGGAVAAWGQGTLVTVSSGGGGSGGGGSGGGGSGGGGSESKYGPPCPPCPAPEFLGGPSVFLFPPKPKDTLMISRTPEVTCVVVDVSQEDPEVQFNWYVDGVEVHNAKTKPREEQFNSTYRVVSVLTVLHQDWLNGKEYKCKVSNKGLPSSIEKTISKAKGQPREPQVCTLPPSQEEMTKNQVSLSCAVKGFYPSDIAVEWESNGQPENNYKTTPPVLDSDGSFFLVSRLTVDKSRWQEGNVFSCSVMHEALHNRFTQKSLSLSLGAGGGGSGGGGSGGGGSGGGGSEVQLVESGGGLVQPGGSLRLSCAASGYTFTNYGMNWVRQAPGKCLEWVGWINTYTGEPTYAADFKRRFTFSLDTSKSTAYLQMNSLRAEDTAVYYCAKYPHYYGSSHWYFDVWGQGTLVTVSSGGGGSGGGGSGGGGSGGGGSDIQMTQSPSSLSASVGDRVTITCSASQDISNYLNWYQQKPGKAPKVLIYFTSSLHSGVPSRFSGSGSGTDFTLTISSLQPEDFATYYCQQYSTVPWTFGCGTKVEIK
light: DIQMTQSPSSLSASVGDRVTITCRASESVDNYGISFMNWYQQKPGKAPKLLIYAASNQGSGVPSRFSGSGSGTDFTLTISSLQPEDFATYYCQQSKEVPWTFGGGTKVEIKRTVAAPSVFIFPPSDEQLKSGTASVVCLLNNFYPREAKVQWKVDNALQSGNSQESVTEQDSKDSTYSLSSTLTLSKADYEKHKVYACEVTHQGLSSPVTKSFNRGEC
notes: Knob-into-hole heterodimer; light: CQ1-3/1-11 VL-kappa; One site each for PD-1 and CTLA-4; also called H010-F13
B2: HC010-F14 (trispecific antibody, human IgG4 S228P)
heavy 1: EVQLVESGGGLVQPGGSLRLSCAASGFTFSSYGMSWVRQAPGKCLEWVSTISGGGRDTYYPDSVKGRFTISRDNSKNTLYLQMNSLRAEDTAVYYCARQNGITWFADWGQGTLVTVSSGGGGSGGGGSGGGGSGGGGSDIQMTQSPSSLSASVGDRVTITCRASESVDNYGISFMNWYQQKPGKAPKLLIYAASNQGSGVPSRFSGSGSGTDFTLTISSLQPEDFATYYCQQSKEVPWTFGCGTKVEIKGGGGSGGGGSGGGGSGGGGSESKYGPPCPPCPAPEFLGGPSVFLFPPKPKDTLMISRTPEVTCVVVDVSQEDPEVQFNWYVDGVEVHNAKTKPREEQFNSTYRVVSVLTVLHQDWLNGKEYKCKVSNKGLPSSIEKTISKAKGQPREPQVYTLPPCQEEMTKNQVSLWCLVKGFYPSDIAVEWESNGQPENNYKTTPPVLDSDGSFFLYSRLTVDKSRWQEGNVFSCSVMHEALHNHYTQKSLSLSLGAGGGGSGGGGSGGGGSGGGGSEVQLVESGGGLVQPGGSLRLSCAASGYTFTNYGMNWVRQAPGKCLEWVGWINTYTGEPTYAADFKRRFTFSLDTSKSTAYLQMNSLRAEDTAVYYCAKYPHYYGSSHWYFDVWGQGTLVTVSSGGGGSGGGGSGGGGSGGGGSDIQMTQSPSSLSASVGDRVTITCSASQDISNYLNWYQQKPGKAPKVLIYFTSSLHSGVPSRFSGSGSGTDFTLTISSLQPEDFATYYCQQYSTVPWTFGCGTKVEIK
heavy 2: EVQLLESGGGLVQPGGSLRLSCAASGSIFSINHMAWYRQAPGKQRELVAGVNSRGTTNYVDSVKGRFTISRDNSKNTLYLQMNSLRAEDTAVYYCRALGGAVAAWGQGTLVTVSSGGGGSGGGGSGGGGSGGGGSESKYGPPCPPCPAPEFLGGPSVFLFPPKPKDTLMISRTPEVTCVVVDVSQEDPEVQFNWYVDGVEVHNAKTKPREEQFNSTYRVVSVLTVLHQDWLNGKEYKCKVSNKGLPSSIEKTISKAKGQPREPQVCTLPPSQEEMTKNQVSLSCAVKGFYPSDIAVEWESNGQPENNYKTTPPVLDSDGSFFLVSRLTVDKSRWQEGNVFSCSVMHEALHNRFTQKSLSLSLGAGGGGSGGGGSGGGGSGGGGSEVQLVESGGGLVQPGGSLRLSCAASGYTFTNYGMNWVRQAPGKCLEWVGWINTYTGEPTYAADFKRRFTFSLDTSKSTAYLQMNSLRAEDTAVYYCAKYPHYYGSSHWYFDVWGQGTLVTVSSGGGGSGGGGSGGGGSGGGGSDIQMTQSPSSLSASVGDRVTITCSASQDISNYLNWYQQKPGKAPKVLIYFTSSLHSGVPSRFSGSGSGTDFTLTISSLQPEDFATYYCQQYSTVPWTFGCGTKVEIK
notes: also called H010-F14

Columns and labels:
[1] = molecular target: T1, human CTLA-4 on the cell surface (human, UniProt P16410 36-223); assay: flow cytometry competition, 293T-hPD-1-hCTLA-4 cells (PD-1 co-expressed), biotin-human CD80
T1 construct: whole, on cells; also called CHO-hCTLA-4 cells; CHOK1-hCTLA4 cells
T1 sequence (P16410 36-223): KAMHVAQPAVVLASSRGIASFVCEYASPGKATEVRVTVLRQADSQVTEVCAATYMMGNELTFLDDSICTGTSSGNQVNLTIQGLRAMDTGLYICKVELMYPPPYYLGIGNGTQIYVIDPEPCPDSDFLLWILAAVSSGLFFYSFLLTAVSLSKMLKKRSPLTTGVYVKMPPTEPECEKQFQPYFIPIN
Protocol: PD-1 and CTLA-4 are co-expressed on functionally exhausted T cells in the tumor microenvironment, and the expression level of PD-1 is higher than that of CTLA-4. […] 200 μL of the cells were added to a 96-well U-bottom plate, approximately 1.4×10⁵ cells/well. After centrifugation at 300 g for 5 minutes, the supernatant was discarded. […] After washing three times with FACS buffer, 100 μL/well of 1:800 diluted PE Streptavidin was added and incubated at 4° C. for 50 min. After washing three times with FACS buffer, 150 μL/well of PBS was added to resuspend the cells, and the fluorescence signal was detected on a flow cytometer (BECKMAN COULTER cytoFLEX). The binding activity was fitted using a four-parameter model, and the IC₅₀ value of the blocking activity of each antibody was calculated.

[2] = molecular target: human PD-1 protein (Acro, PD1-H5257) (human, UniProt Q15116 25-167); assay: competitive ELISA, PD-1 coated, biotin-PD-L1 as labelled ligand
Sequence of human PD-1 protein (Acro, PD1-H5257) (Q15116 25-167 limits assumed): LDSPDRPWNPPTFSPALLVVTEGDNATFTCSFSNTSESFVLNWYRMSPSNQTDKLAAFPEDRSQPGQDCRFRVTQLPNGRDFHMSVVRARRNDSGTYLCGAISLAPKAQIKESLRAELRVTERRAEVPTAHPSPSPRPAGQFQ
Protocol: The next day, the plate was washed three times with PBS solution and blocked with 1% BSA-PBS solution at 37° C. for 1 hour. […] 100 μL of the antibody-protein mixture was added to each well of the blocked 96-well ELISA plate and incubated at 37° C. for 1 hour. After washing four times with PBST, 100 μL of Strep-HRP (BD, Catalog No. 554066) diluted 1:5000 was added to each well of the ELISA plate and incubated at 37° C. for 1 hour. After washing 4 times with PBST, TMB was used for color development. The absorbance at 450 nm and 630 nm was detected by a microplate reader, and OD450-OD630 was calculated. The fluorescence intensity was fitted using a four-parameter model, and the IC₅₀ value of the blocking activity of each antibody was calculated.

[3] = molecular target: T2, human CTLA-4 protein (Acro, Catalog No. CT4-H52H9) (human, UniProt P16410 36-161); assay: ELISA, plate coated with human CTLA-4 protein
T2 construct: Bought protein
T2 sequence (P16410 36-161 limits assumed): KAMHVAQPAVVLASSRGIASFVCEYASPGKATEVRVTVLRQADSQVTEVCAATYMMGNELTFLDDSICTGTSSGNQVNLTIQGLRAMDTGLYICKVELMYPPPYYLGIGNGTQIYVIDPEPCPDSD

[4] = molecular target: T3, human PD-1 on the cell surface (human, UniProt Q15116 25-288); assay: flow cytometry competition, 293T-hPD-1 cells, biotin-human PD-L1
T3 construct: whole, on cells; also called cell surface PD-1
T3 sequence (Q15116 25-288): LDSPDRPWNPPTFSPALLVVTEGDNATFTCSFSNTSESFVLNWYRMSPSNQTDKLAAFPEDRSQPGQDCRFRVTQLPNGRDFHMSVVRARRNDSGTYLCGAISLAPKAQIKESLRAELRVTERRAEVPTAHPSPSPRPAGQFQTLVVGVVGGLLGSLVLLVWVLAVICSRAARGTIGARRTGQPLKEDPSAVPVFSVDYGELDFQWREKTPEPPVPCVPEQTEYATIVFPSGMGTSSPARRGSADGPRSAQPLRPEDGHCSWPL
Protocol: 50 μL of antibody solution serially diluted 3-fold in FACS buffer was added in triplicate, with a starting concentration of 200 nM. After mixing, incubated at 4° C. for 60 minutes. After washing three times with FACS buffer, 100 μL/well of 1:800 diluted PE Streptavidin was added and incubated at 4° C. for 50 min. After washing three times with FACS buffer, 150 μL/well of PBS was added to resuspend the cells, and the fluorescence signal was detected on a flow cytometer (BECKMAN COULTER cytoFLEX). The four-parameter model was used to fit the binding activity and the IC₅₀ value of the blocking activity of each antibody was calculated.

[5] = molecular target: T4, human VEGF165-his protein (Acro, Catalog No. VE5-H5248) (human, UniProt P15692-4 27-191); assay: ELISA, plate coated with human VEGF165-his
T4 construct: Bought protein; also called hVEGF165-His; VEGFA; not shown: his tag
T4 sequence (P15692 other isoform, or with tags, fused parts or gaps limits assumed): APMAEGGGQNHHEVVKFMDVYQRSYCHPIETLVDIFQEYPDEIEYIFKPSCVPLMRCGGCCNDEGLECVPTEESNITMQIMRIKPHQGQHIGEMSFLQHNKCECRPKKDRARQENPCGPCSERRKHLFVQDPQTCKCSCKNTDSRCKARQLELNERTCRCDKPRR
Protocol: (§1) ELISA was used to determine the activity of the trispecific antibodies binding to the PD-1 protein: 1 μg/mL human PD-1 protein (Acro, Catalog No.: PD1-H5221) was used to coat a high-adsorption 96-well ELISA plate and incubated at 4° C. overnight. On the next day, the plate was washed three times with PBST solution and blocked with 1% BSA-PBS solution at 37° C. for 1 hour. At the same time, 3-fold gradient dilutions of the antibody were prepared with 1% BSA-PBS solution, with a starting concentration of 10 nM. The antibodies of each gradient concentration were added to the blocked 96-well ELISA plate at 100 µL/well in triplicate and incubated at 37° C. for 1 hour. The plate was then washed three times with 0.05% PBST solution, and 100 μL/well of HRP-labeled secondary antibody (Sigma, Catalog No.: A0170) diluted at 1:5000 was added to the ELISA plate and incubated at 37° C. for 1 hour. The plate was washed three times with 0.05% PBST solution and developed with TMB. The absorbance of the 96-well ELISA plate at 450 nm was detected by an ELISA reader. The OD₄₅₀ value was fitted using a four-parameter model to calculate the EC₅₀ value of each antibody binding to PD-1.
The binding activity of the trispecific antibodies to VEGFA protein was detected by ELISA method as described in Section 2.1. The used human VEGF165-his protein was purchased from Acro, Catalog No.: VE5-H5248.

[6] = molecular target: T5, human PD-1 protein (Acro, Catalog No. PD1-H5221) (human, UniProt Q15116 25-167); assay: ELISA, plate coated with human PD-1 protein
T5 construct: Bought protein; also called human PD1-his; not shown: his tag
T5 sequence (Q15116 25-167 limits assumed): as the sequence (Q15116 25-167 limits assumed) above
Protocol: as §1

Row | Binder | IC50 [1] | IC50 [2] | EC50 [3] | IC50 [4] | EC50 [5] | EC50 [6]
1 | B1 | 66 pM | 1630 pM | 438 pM | 69900 pM | 98 pM | 307 pM
2 | B2 | 116 pM | 2410 pM | 734 pM | > 200000 pM | 96 pM | 472 pM
